Conditions in all cases: both partners purified
Experiment [1] addresses T1, CMGE (budding yeast CMG helicase, Cdc45-Mcm2-7-GINS, together with DNA polymerase ε) (S. cerevisiae, UniProt P29469 1-868; P24279 1-971; P30665 1-933; P29496 1-775; P53091 1-1017; P38132 …).
T1 construct: Mcm2, S. cerevisiae, subunit of CMG; Mcm3, S. cerevisiae, subunit of CMG (CBP-TEV-MCM3); Mcm4, S. cerevisiae, subunit of CMG; Mcm5, S. cerevisiae, subunit of CMG; Mcm6, S. cerevisiae, subunit of CMG; Mcm7, S. cerevisiae, subunit of CMG; Cdc45, S. cerevisiae, subunit of CMG (CDC45iFLAG2, internal FLAG tag; detected by anti-FLAG immunoblotting); Sld5, S. cerevisiae, GINS subunit of CMG …
Put plainly: co-IP; purified proteins mixed: 1–10 nM Rrm3/Rrm3N-BacPif1/BacPif1 with 15 nM CMG and 30 nM Pol ε, 10 min on ice; anti-Sld5 beads, 30 min 4 °C; 25 mM Hepes-KOH pH 7.6, 400 mM KOAc, 0.02% NP-40-S, 0.1 mg/mL BSA, 1 mM DTT, 10 mM Mg(OAc)2; immunoblotting. A general note: A western blot detects proteins with antibodies after separation by electrophoresis.

Experiment [2] addresses T2, GINS tetramer (Sld5, Psf1, Psf2, Psf3), S. cerevisiae (S. cerevisiae, UniProt Q03406 1-294; Q12488 1-208; P40359 1-213; Q12146 1-194).
T2 construct: Sld5, GINS subunit, S. cerevisiae; Psf1, GINS subunit, S. cerevisiae; Psf2, GINS subunit, S. cerevisiae; Psf3, GINS subunit, S. cerevisiae; pJL005 with TwinStrep-Psf3; also called tetrameric GINS complex; source: purified as previously described (Yeeles et al, 2015; Lewis et al, 2022); copies: + + +
T2 sequence (looked up) 1: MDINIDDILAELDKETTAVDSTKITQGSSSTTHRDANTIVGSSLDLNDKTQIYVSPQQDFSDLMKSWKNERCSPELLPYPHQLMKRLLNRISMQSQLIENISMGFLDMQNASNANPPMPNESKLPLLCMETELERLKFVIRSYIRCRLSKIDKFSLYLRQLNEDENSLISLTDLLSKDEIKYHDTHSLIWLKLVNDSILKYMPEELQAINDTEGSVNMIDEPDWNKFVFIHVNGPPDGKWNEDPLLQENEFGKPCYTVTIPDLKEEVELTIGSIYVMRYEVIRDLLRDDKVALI
T2 sequence (looked up) 2: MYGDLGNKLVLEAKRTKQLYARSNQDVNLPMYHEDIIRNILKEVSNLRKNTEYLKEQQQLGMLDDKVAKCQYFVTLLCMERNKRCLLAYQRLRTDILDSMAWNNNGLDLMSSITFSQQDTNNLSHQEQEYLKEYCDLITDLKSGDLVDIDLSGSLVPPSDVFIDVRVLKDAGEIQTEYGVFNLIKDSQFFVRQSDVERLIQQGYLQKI
T2 sequence (looked up) 3: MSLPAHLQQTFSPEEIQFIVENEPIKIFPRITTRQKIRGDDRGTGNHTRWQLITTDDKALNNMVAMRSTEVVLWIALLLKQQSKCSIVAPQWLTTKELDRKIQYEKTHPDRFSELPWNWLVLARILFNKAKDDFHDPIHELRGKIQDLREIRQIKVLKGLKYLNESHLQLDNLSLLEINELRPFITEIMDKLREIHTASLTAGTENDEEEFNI
T2 sequence (looked up) 4: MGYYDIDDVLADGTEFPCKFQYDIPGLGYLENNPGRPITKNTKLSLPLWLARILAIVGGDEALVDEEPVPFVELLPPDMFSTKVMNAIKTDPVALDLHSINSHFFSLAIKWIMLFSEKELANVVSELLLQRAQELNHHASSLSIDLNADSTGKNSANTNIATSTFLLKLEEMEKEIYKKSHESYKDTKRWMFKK
Put plainly: co-IP; purified proteins mixed: 10 nM FLAG-Rrm3 with 15 nM GINS, 10 min on ice; anti-FLAG M2 magnetic beads; 25 mM Hepes-KOH pH 7.6, 200 mM KOAc, 0.02% NP-40-S, 0.1 mg/mL BSA, 1 mM DTT, 10 mM Mg(OAc)2; immunoblotting.

For experiment [3], the target named is T3, DNA polymerase ε (Pol2, Dpb2, Dpb3, Dpb4), S. cerevisiae (S. cerevisiae, UniProt P21951 1-2222; P24482 1-689; P27344 1-201; Q04603 1-196).
T3 construct: Pol2, catalytic subunit of DNA polymerase ε, S. cerevisiae; Dpb2, second largest subunit of DNA polymerase ε, S. cerevisiae; Dpb3, subunit of DNA polymerase ε, S. cerevisiae; Dpb4, subunit of DNA polymerase ε, S. cerevisiae (DPB4-TEV-CBP); also called Polε; Pol ε; source: S. cerevisiae strain yAJ2, purified as previously described (Yeeles et al, 2015); copies: + + +
T3 sequence (P21951 whole entry, chain 1 of 4): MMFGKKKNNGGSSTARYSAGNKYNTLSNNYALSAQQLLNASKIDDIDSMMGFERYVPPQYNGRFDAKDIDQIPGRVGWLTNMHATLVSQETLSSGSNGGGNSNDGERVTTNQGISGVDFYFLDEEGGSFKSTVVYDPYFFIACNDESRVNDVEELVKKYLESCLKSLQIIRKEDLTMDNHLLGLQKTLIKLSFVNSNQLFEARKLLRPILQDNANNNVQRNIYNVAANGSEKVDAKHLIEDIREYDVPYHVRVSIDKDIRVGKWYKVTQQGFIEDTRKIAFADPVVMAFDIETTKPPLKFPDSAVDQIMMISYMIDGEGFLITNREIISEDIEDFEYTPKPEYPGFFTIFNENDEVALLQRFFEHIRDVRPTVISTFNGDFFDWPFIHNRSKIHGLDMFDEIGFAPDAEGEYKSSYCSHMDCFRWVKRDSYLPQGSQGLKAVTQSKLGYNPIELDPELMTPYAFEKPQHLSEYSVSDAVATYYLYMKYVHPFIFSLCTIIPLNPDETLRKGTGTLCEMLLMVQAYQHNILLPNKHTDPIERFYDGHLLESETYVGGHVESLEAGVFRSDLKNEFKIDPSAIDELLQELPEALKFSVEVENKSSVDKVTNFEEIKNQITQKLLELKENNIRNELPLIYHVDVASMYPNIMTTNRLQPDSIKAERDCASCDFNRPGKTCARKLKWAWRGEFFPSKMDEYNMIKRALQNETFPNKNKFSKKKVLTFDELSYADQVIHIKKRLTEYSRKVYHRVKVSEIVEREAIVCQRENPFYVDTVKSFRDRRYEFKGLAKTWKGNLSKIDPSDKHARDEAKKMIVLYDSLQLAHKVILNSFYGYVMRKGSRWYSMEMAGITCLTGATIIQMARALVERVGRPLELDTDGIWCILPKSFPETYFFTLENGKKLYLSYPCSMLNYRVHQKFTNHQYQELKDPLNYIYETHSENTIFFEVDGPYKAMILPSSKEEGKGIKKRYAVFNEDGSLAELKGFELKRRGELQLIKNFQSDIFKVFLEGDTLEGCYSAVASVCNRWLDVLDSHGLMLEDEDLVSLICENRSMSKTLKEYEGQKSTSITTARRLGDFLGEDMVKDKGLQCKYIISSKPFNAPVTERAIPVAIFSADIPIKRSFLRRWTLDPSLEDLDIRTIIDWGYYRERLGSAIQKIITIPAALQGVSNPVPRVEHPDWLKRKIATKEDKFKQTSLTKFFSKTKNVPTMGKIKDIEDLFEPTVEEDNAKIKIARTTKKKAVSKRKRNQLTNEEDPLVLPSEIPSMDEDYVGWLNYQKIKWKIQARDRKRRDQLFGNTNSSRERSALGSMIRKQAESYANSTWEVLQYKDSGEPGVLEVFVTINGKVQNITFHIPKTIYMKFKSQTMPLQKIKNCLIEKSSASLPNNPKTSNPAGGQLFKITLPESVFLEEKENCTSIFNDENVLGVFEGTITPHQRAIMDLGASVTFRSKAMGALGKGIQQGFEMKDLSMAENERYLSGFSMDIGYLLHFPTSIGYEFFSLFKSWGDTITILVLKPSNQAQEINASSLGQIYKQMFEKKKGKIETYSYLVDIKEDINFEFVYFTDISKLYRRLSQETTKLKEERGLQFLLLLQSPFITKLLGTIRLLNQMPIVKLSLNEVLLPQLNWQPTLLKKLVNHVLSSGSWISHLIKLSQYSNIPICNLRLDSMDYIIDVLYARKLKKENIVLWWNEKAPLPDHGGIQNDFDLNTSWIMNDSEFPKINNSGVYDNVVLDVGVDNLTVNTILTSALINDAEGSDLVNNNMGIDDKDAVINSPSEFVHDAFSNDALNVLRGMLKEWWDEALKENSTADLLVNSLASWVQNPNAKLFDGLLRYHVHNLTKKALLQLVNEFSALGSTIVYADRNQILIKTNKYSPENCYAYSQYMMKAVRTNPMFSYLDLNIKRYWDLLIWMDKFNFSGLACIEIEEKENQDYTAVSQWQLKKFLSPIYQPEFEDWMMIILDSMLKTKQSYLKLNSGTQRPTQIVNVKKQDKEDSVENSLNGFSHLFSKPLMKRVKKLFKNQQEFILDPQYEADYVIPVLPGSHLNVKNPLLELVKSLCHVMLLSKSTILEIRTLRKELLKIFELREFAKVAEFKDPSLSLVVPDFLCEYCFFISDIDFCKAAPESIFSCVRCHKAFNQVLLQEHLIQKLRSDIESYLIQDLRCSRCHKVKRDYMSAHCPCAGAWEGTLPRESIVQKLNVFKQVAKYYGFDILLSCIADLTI
T3 sequence (P24482 whole entry, chain 2 of 4): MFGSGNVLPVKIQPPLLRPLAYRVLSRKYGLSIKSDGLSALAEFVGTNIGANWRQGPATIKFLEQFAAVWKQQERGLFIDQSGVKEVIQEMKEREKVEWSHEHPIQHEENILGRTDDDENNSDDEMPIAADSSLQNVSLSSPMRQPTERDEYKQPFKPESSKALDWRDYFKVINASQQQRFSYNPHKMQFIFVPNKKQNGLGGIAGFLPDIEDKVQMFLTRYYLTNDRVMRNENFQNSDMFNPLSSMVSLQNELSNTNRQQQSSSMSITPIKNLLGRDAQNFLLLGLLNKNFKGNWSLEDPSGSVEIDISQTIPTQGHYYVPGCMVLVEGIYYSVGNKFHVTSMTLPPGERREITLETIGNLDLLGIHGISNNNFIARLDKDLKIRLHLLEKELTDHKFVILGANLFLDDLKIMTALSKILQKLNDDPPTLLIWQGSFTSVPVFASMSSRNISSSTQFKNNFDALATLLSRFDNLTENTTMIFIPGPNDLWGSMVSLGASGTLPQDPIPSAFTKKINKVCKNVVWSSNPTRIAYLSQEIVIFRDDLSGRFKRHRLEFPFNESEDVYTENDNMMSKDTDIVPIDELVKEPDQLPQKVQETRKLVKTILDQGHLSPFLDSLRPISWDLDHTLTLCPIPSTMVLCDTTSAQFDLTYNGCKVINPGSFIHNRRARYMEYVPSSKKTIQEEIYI
T3 sequence (P27344 whole entry, chain 3 of 4): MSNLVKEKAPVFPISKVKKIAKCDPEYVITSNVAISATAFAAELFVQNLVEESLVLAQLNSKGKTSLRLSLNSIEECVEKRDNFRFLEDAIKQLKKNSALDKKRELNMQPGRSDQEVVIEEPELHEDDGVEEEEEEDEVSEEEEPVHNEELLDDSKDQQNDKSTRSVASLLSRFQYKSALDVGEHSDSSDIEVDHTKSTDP
T3 sequence (Q04603 whole entry, chain 4 of 4): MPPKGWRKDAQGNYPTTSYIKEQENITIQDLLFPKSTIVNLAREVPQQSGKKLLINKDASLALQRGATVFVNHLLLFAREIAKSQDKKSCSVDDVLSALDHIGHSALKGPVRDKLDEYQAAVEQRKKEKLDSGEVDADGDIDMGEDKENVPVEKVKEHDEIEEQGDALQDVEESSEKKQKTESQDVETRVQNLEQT
Put plainly: co-IP; purified proteins mixed: 10 nM FLAG-Rrm3 with 15 nM Pol ε, 10 min on ice; anti-FLAG M2 magnetic beads; 25 mM Hepes-KOH pH 7.6, 400 mM KOAc, 0.02% NP-40-S, 0.1 mg/mL BSA, 1 mM DTT, 10 mM Mg(OAc)2; immunoblotting.

These results are taken from publication PMC11405395 (The EMBO Journal, 2024).

Substitutions are numbered along the chain they refer to. In names and notes the source's numbering stands.

B1: Rrm3 (wild-type, FLAG-tagged) (enzyme, S. cerevisiae, UniProt P38766 1-723, looked up)
chain: MFRSHASGNKKQWSKRSSNGSTPAASASGSHAYRQQTLSSFFMGCGKKSAAASKNSTTIIDLESGDEGNRNITAPPRPRLIRNNSSSLFSQSQGSFGDDDPDAEFKKLVDVPRLNSYKKSSRSLSMTSSLHKTASASTTQKTYHFDEDETLREVTSVKSNSRQLSFTSTINIEDSSMKLSTDSERPAKRSKPSMEFQGLKLTVPKKIKPLLRKTVSNMDSMNHRSASSPVVLTMEQERVVNLIVKKRTNVFYTGSAGTGKSVILQTIIRQLSSLYGKESIAITASTGLAAVTIGGSTLHKWSGIGIGNKTIDQLVKKIQSQKDLLAAWRYTKVLIIDEISMVDGNLLDKLEQIARRIRKNDDPFGGIQLVLTGDFFQLPPVAKKDEHNVVKFCFESEMWKRCIQKTILLTKVFRQQDNKLIDILNAIRYGELTVDIAKTIRNLNRDIDYADGIAPTELYATRREVELSNVKKLQSLPGDLYEFKAVDNAPERYQAILDSSLMVEKVVALKEDAQVMMLKNKPDVELVNGSLGKVLFFVTESLVVKMKEIYKIVDDEVVMDMRLVSRVIGNPLLKESKEFRQDLNARPLARLERLKILINYAVKISPHKEKFPYVRWTVGKNKYIHELMVPERFPIDIPRENVGLERTQIPLMLCWALSIHKAQGQTIQRLKVDLRRIFEAGQVYVALSRAVTMDTLQVLNFDPGKIRTNERVKDFYKRLETLK
notes: Rrm3 Pif1-family 5'-3' DNA helicase, S. cerevisiae; helicase domain printed as residues 230-723; Gene codon optimised for expression; a TEV site lies between the 3FLAG tag and Rrm3; also called WT Rrm3; full-length Rrm3; source: S. cerevisiae strain yTDK9, purified (anti-FLAG M2 resin, HiTrap heparin); not shown: 3FLAG, N-terminal, kept
In the case of B1, the binding result in experiment [1], in experiment [2] and in experiment [3] was “binds” each time.

B2: Rrm3-2E (Rrm3 K118E, R122E) (enzyme, S. cerevisiae, UniProt P38766 1-723, looked up)
chain: B1 chain with K118E, R122E
notes: Built in the wild-type expression plasmid pTDK15 (pOO8); also called 3FLAG-TEV-RRM3-2E; source: S. cerevisiae strain yOO4, purified (anti-FLAG M2 resin, HiTrap heparin); not shown: 3FLAG, N-terminal, kept
On to B2, for which the binding result in experiment [1] and in experiment [3] was “binds” in each case.
